This series is described as follows: soluble on expression in E. coli; label from the status in PepcDB or PDB records.
“MRGSHHHHHHTDPALRAKKIAIVGAGPTGIYTLFSLLQQQTPLSISIFEQADEAGVGMPYSDEENSKMMLANIASIEIPPIYCTYLEWLQKQEDSHLQRYGVKKETLHDRQFLPRILLGEYFRDQFLRLVDQARQQKFAVAVYESCQVTDLQITNAGVMLATNQDLPSETFDLAVIATGHVWPDEEEATRTYFPSPWSGLMEAKVDACNVGIMGTSLSGLDAAMAVAIQHGSFIEDDKQHVVFHRDNASEKLNITLLSRTGILPEADFYCPIPYEPLHIVTDQALNAEIQKGEEGLLDRVFRLIVEEIKFADPDWSQRIALESLNVDSFAQAWFAERKQRDPFDWAEKNLQEVERNKREKHTVPWRYVILRLHEAVQEIVPHLNEHDHKRFSKGLARVFIDNYAAIPSESIRRLLALREAGIIHILALGEDYKMEINESRTVLKTEDNSYSFDVFIDARGQRPLKVKDIPFPGLREQLQKTGDEIPDVGEDYTLQQPEDIRGRVAFGALPWLMHDQPFVQGLTACAEIGEAMARAVVKPASRARRRLSFDGLCGR”: the “soluble on expression in E. coli” value was “soluble”.

Take “MSAQKPGLHPRNRHQHRYDLAALCQTTPELTSFLIRTPAGEQSVDFANPQAVKALNKALLAHFYAVTHWDIPPGFLCPPVPGRADYIHHLADLLGETTGSIPAQATILDVGVGANCIYPLIGVHEYGWRFTGSEVSDAAMSSAQAIIQANTGLSRAIRLRRQKDPAAIFTGIIHKNEFYDATLCNPPFHDSAAAARAGSERKRRNLGQNKDDALNFGGQQQELWCEGGEVAFIKKMIAESQSFRRQVLWFTTLVSRGENLPPLYRALTEAGAVKVVKKEMAQGQKQSRFIAWTFMDDDQRRRFITRKR”: the “soluble on expression in E. coli” value is recorded as “not soluble”.

In the case of “MAHHHHHHMAATKSAVSAAKRKAAKKVSRKSPEYTTLRKSCAPGAIAIILAGRFRGRRAVILKQLPHNGPLVVSGPMKYNGVPIRRIDSRYVIATSTTVDISSVDTAPITAEVFQRPKAEKPTKSEGDFMGDKQKAKAEKAAKKTSKAGKKTLVSDARAQLQKKIDAALIAAIKKDAQGKEKAGYLRSVFTVKPGDAPHRWNW”, the “soluble on expression in E. coli” value is “not soluble”.

As to “MASPRELTQNPLKKIFMPYSNGRPALHASQRGVCMTNCPTLIVMVGLPARGKTYISKKLTRYLNFIGVPTREFNVGQYRRDMVKTYKSFEFFLPDNEEGLKIRKQCALAALNDVRKFLSEEGGHVAVFDATNTTRERRAMIFNFGEQNGYKTFFVESICVDPEVIAANIVQVKLGSPDYVNRDSDEATEDFMRRIECYENSYESLDEEQDRDLSYIKIMDVGQSYVVNRVADHIQSRIVYYLMNIHVTPRSIYLCRAGESELNLKGRIGGDPGLSPRGREFSKHLAQFISDQNIKDLKVFTSQMKRTIQTAEALSVPYEQFKVLNEIDAGVCEEMTYEEIQDHYPLEFALRDQDKYRYRYPKGESYEDLVQRLEPVIMELERQENVLVICHQAVMRCLLAYFLDKAAEELPYLKCPLHTVLKLTPVAYGCKVESIFLNVAAVNTHRDRPQNVDISRPSEEALVTVPAHQ”, the “soluble on expression in E. coli” value is recorded as “soluble”.

Turning to “AVNEENIMIPKGVEVYEITGPYFFGIATKFEETMAQLGDRPNVRIIRMRKVPFIDSTGIHNLTTLCEMSQKEKITVILSGVNEKVYKVLEKSGFYELLGKENICPNFKIALDRAEEVMK”, the “soluble on expression in E. coli” value is given as “soluble”.

Turning to “MRRFLTLTVALGFLSACEVSDPGPVAPLPKVPDSPPMSASAAQSAFASVSARVRPVAVRECQQRTQGANCDFKIQIDPDPKAPVNAYQTVGKNGQPLIIFTRSMIATARNADELAFVMGHEAAHHIRGHLARQNASAIAGAVILGGLVGLAGGGASTIDAATQIGASVGARTYSKEYELEADELGTVITHKAGYNPLVGAHFFSRIPDPGDRFLGSHPPNAARIQTVQRTAGSLGLTQLEHHHHHH”, the “soluble on expression in E. coli” value is “not soluble”.

For “MGSDKIHHHHHHEATETQNEKVKVKVETVSVQDVEQLSEFTATVEANIKNNIAPQTPFRIEKIFAEVGDHVKAGQLLAKMDATSLKQAKIQLDNQEIEFKRIDELYKVGGASKSAWDAQKTSLEVARETYKNLVENTQLLSPISGIVTARNYDSGDMYSGGNPIYTVEEIRPVKLMVNVSESLFTKVKKGHEVDIRLDVYGDEVFKGKVNLVYPTIDPATRTFPVEIKIANSDERVRPGMFARVTMSFGHMDHVVAPDRSIVKQSGAGDRYIYVCKDGKVSYQKVKLGRRMGDKYEIISGVEDGDQVVITGQSRLTNGMEVEIENE”, the “soluble on expression in E. coli” value is reported as “not soluble”.

Turning to “MGSDKIHHHHHHMKKAAIITIGSELLEGLILNKNAQFLCQELKNLGYRVVKVSTVGDDLISISEEVKTLLLKVDLLILTGGLGPTQDDLTRDAVAKVLNRSLKLNEELLSKIKEKIKKYHSEIPQNIERQALVIDGAEVLDNPVGSAPGQLLTVDGKIVILLPGPPRELIPMFNALKDRLRTPDALYQVVLKYYSIPEAVLEDLLKDILYSQNIVEVATMADHVEGVRLRLTTHMKNKEYLDEMVKKILDKTGEHLYGVNDEKMEEVVVRLLKDRKKTLAVAESCTGGMLSSLVVNVPGASEVFIGGVVAYSNDLKKHILGVREDTLKKHGAVSEECVQEMTEGLKKLTGADICVSISGIAGPSGGTPEKPVGTVFIDIFEHEHITMRYNFTGDRNMIRTRSAMMALENLRKYLKGRERV”, the “soluble on expression in E. coli” value was “not soluble”.

Regarding “GHMATIHPTAIVDEGARIGAHSRIWHWVHICGGAEIGEGCSLGQNVFVGNRVRIGNRVKIQNNVSVYDNVFLEDDVFCGPSMVFTNVYNPRAAIERKSEYRDTIVRQGATLGANCTVVCGATIGRYAFVGAGAVVNKDVPDFALVVGVPARQIGWMSRHGEQLDLPLRGNAEATCPHTGERYILTDGVCRLA”, the “soluble on expression in E. coli” value is “soluble”.

In the case of “MEQEFFFPPPKKSDGPVVACVVEKKGDGTRTSMRQNEIYAYSAQIRTGDGCMVMPKIHWNSFEPSDWVSCTLEYVNKANQIKEKEMLEISKVPAENFDRFGMPPTRFENGIVQIKTLFVACPEFIKNRETRNAYGSYKKLFILNIGLGFVSTRRTADGNLAEKVKNGDVYTGIFEFRAKDNGAINFNHRGRVRDETNHVIERDAMWELTKTSSVAATDVQKKQMKEAIEQLRKDAEQFEREFKDSQSRPVAPMLPPNEISENRKEINLGLALPSRHSQPSIRTVDVVTTTPAQMMPTASSFRIPFAQVSKAPVVAPSSQLQQQQQQPCSSNQTARIGNFLERDQVRGNLLGVPLSSSTPRGSPELLRRREVTADDGNITSNTAVMLRDNNANPMNRRRPS”, the “soluble on expression in E. coli” value is “not soluble”.

On to “MVARSEEIVIVEEDTTAKCLMLLSRVGECGGGCGGDERVFRCKTCLKEFSSFQALGGHRASHKKLINSDNPSLLGSLSNKKTKTSHPCPICGVKFPMGQALGGHMRRHRNEKVSGSLVTRSFLPETTTVTALKKFSSGKRVACLDLDLDSMESLVNWKLELGRTISWS”, for which the “soluble on expression in E. coli” value is recorded as “not soluble”.

In the case of “MSQSISLKGSTRTVTEFFEYSINSILYQRGVYPAEDFVTVKKYDLTLLKTHDDELKDYIRKILLQVHRWLLGGKCNQLVLCIVDKDEGEVVERWSFNVQHISGNSNGQDDVVDLNTTQSQIRALIRQITSSVTFLPELTKEGGYTFTVLAYTDADAKVPLEWADSNSKEIPDGEVVQFKTFSTNDHKVGAQVSYKY”, the “soluble on expression in E. coli” value was “soluble”.

In the case of “MVLSRHVIITPCPDRPGTSILFSAKRGALILVDDELLAAIGAGGLDADEEQTLAELGFLVPDHDSEQQEMCSFVDESNRASRSFAALIILNLSCNLACSYCFEGNRRGAHFMDDDTADRLVAYLVSGPVAEGRSLSLRFYGGEPLLSVPTIRRIARPLKKVMDARGLSFSFSLTTNGTLLTRELVEELIPLGLVGATVTLDGPPDIHDAARPFVGGEGSFSVIFANLKAVADLIALEIGGNFTPETYREYPRLFDLLVAEGLGPERLALVRFNAVMSAGENRALPEFTGGCASVNEPWLKDATLFIREELLRRGFPAPGLSPHYCAIEAEDSLIVNHDGTFYRCPAFIGIEGLAAGSLDDGLSDHAASHGLGAWKNEECLSCAYLPLCFGGCRYYGYLEHGRIDRVSCGRDLFDAIVGPFLALEVKYRHQPGEDASDTDGDSD”, the “soluble on expression in E. coli” value is given as “not soluble”.

“MGSDKIHHHHHHSRSGEKAAQQLVDYFIYQEKPETFSQTFREPKVLAEHLQTSRQQFQKQFFNSLKEMNAEVTETEAQKLSAELLAQVKKKASYQLVATKELNGQATITFQIKGLDFVTAIEDTTTALLQQTQQATQALDMQHTLAVLKKEIQQINVSHEPVELPLTVKQVEGQWYLPAVEQLRLNQFFLAFVTGKEDTDQLTEALDTILTQAEQKVVTADERTAIAGN”: the “soluble on expression in E. coli” value was “not soluble”.

Regarding “MAKYTEWLTEEGLIKIEGWARDGLIDKQIAQNIGVAYSTFREWVKKFPALSASLKKGKEVVDRQVENALFKSATGYEYTEVTEELTENGMEITKKVKKQVAPNPTAAIFWLKNRKPDEWRDRKETEVSGVLNISDAAVEIEQFFEDDST”, the “soluble on expression in E. coli” value is reported as “not soluble”.

With “GKDWMISAKGTFTFARNILDEVFETEATFNNPNRRRTGRPDGTMFGYNALGYFTYDDFNPDGSLKAGIATQPWGQVYPGDLRYEDLSGPNGVPDGKIDEHDQTVIGFSNWAPEIIFGLAPTVQWKNFDLNALIQGATRTSISLGETLVMPFFDSGSATKLQFSDHWTPDNTNAPYPRLTSEVTVNNHRQPSSWWVRDATYIRLKSIEIGYTLPRSALNFIGISSARVYASGQNLWTWTPFMKELIDPEAKSANGKYYMQQAVYAFGLNITF”, the “soluble on expression in E. coli” value is “not soluble”.

Turning to “MPDESAQVRFLIVGRTGWIANMVAELLEQRGERYAFASFRLEQREACELELDALRPQRVLNCAGVTGRPNVDWCEDHRRETVRSNVLGVLNLADCCASRGIHLTNFATGCLYHYDDGEHRPTAEGGRPFTEDDPPNFFGSYYSRTKAMVEELLRSAFDNVLILRLRMPVSDDLSPRSFVAKIARYEKVVNIPNSMTVLTELLPVALDMSERGLTGVYNFTNPGSISHNEVLELYRKYIDPKFQWKNFTLEEQAKILKAGRSNCELDVRKLLRDNPGAQIREVHAAMEEVFRRMQAKGVKPLAAP”, the “soluble on expression in E. coli” value was “not soluble”.

With “MSVDMNSQGSDSNEEDYDPNCEEEEEEEEDDPGDIEDYYVGVASDVEQQGADAFDPEEYQFTCLTYKESEGALNEHMTSLASVLKVSHSVAKLILVNFHWQVSEILDRYKSNSAQLLVEARVQPNPSKHVPTSHPPHHCAVCMQFVRKENLLSLACQHQFCRSCWEQHCSVLVKDGVGVGVSCMAQDCPLRTPEDFVFPLLPNEELREKYRRYLFRDYVESHYQLQLCPGADCPMVIRVQEPRARRVQCNRCNEVFCFKCRQMYHAPTDCATIRKWLTKCADDSETANYISAHTKDCPKCNICIEKNGGCNHMQCSKCKHDFCWMCLGDWKTHGSEYYECSRYKENPDIVNQSQQAQAREALKKYLFYFERWENHNKSLQLEAQTYQRIHEKIQERVMNNLGTWIDWQYLQNAAKLLAKCRYTLQYTYPYAYYMESGPRKKLFEYQQAQLEAEIENLSWKVERADSYDRGDLENQMHIAEQRRRTLLKDFHDT”, the “soluble on expression in E. coli” value was “soluble”.

On to “MNVGYLCTYTPKELIDAAGFTPIRIFAGDMQISLATAHIQSYACSQARGSLERALRGELDVQAVVFTRCCDTLMRLADIWERNTDMRVYNIEFPTRVEERSKDYYFNELKDFVKVLEEWGGGVTLESLRESLKLYHELEEKLKRLFSLKPDYEAAKRVQEMNVREAIKFVDERLRKAESEGGKPRVLITGSVCPFVEVYTLFEEAGFALKDDICTGTRFFTFNTPPREIGSVDEGLRFLVDKYFEKAPCPTKHFPNDDRFKYILEMAKDCDGVVFLLLKFCEPHFYDYPQLKERLEEMGKKVLLLELEFPIASIEQLRTRIEAFYEVIA”, for which the “soluble on expression in E. coli” value is recorded as “not soluble”.

On to “MGHHHHHHSHMNGEAICSALPTIPYHKLADLRYLSRGASGTVSSARHADWRVQVAVKHLHIHTPLLDSERKDVLREAEILHKARFSYILPILGICNEPEFLGIVTEYMPNGSLNELLHRKTEYPDVAWPLRFRILHEIALGVNYLHNMTPPLLHHDLKTQNILLDNEFHVKIADFGLSKWRMMSLSQS”, for which the “soluble on expression in E. coli” value is “not soluble”.

The record behind these values is the DeepSol protein solubility set.
